Experiments:
human IgE = human IgE (human, UniProt P01854 1-428); experiment: Biacore, human IgE coupled to a CM5 chip by NHS/EDC, sample protein in flow
Description: Human IgE was immobilized to a CM5 chip (BiaCore) using standard NHS/EDC methods. Sample proteins were dialyzed into HBS buffer overnight, and the dialysis buffer was used as a running buffer for the experiment. Sample proteins were run successively over IgE or ethanolamine coated flow cells, and the data analyzed using the BiaEvaluation software package.

human serum albumin = target: T1, human serum albumin (human, UniProt P02768 25-609); experiment: ELISA, 0.5 µg HSA per well, expression lysate, anti-HA-HRP, signal equal to or better than the anti-HSA trimer
T1 construct: also called HSA; HAS
Description: ELISA plate wells were coated with 0.2 μg of CD40L or 0.5 μg of HAS, and 5 μl of the monomer expression clone lysate was applied to each well. The bound monomers (which were produced as a hemagglutinin (HA) fusion) were then detected by anti-HA-HRP conjugated antibody, developed by horse-radish peroxidase enzyme activity, and read at an OD of 450 nm.

CD28 on monkey PBMC = CD28 on monkey PBMC (monkey); experiment: cell-based or functional assay

Sequence of human IgE (P01854 other isoform, or with tags, fused parts or gaps): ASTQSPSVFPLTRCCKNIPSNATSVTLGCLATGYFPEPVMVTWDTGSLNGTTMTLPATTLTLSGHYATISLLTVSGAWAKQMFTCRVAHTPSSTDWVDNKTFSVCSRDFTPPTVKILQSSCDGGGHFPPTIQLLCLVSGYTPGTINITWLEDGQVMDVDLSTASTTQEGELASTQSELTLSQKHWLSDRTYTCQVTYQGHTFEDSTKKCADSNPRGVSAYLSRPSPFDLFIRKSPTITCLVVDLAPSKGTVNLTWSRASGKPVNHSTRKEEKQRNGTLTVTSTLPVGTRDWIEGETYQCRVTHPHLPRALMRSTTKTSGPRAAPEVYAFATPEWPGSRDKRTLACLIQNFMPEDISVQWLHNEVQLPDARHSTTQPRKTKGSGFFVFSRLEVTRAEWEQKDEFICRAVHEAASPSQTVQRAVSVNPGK

B1: recombinant human FcERI protein (receptor, UniProt P12319 26-205, looked up)
chain: VPQKPKVSLNPPWNRIFKGENVTLTCNGNNFFEVSSTKWFHNGSLSEETNSSLNIVNAKFEDSGEYKCQHQQVNESEPVYLEVFSDWLLLQASAEVVMEGQPLFLRCHGWRNWDVYKVIYYKDGEALKYWYENHNISITNATVEDSGTYYCTGKVWQLDYESEPLNITVIKAPREKYWLQ
notes: also called recombinant FcERI; recombinant soluble IgE receptor
Human IgE
  Kd: 450 nM

## CNPTGKFKCRSGRCVPRESCRCDGVDDCEDNSDEKDCQPHTSLQ (designed binder, HA fusion, tested as expression lysate) [A1_34]
Human serum albumin
  binding result: binds

B2: CD28-A10 (designed binder)
chain: CGPGRFQCESGQCVPATWVCDGDDDCADGSDEKSCATTAPTCESNQFQCGSGQCLPGTWRCDGVNDCADSSDETGCGRPGPGATSAPAACGPGRFQCNNGNCVPQTLGCDGDNDCGDSSDEANCSAPASEPPGSL
CD28 on monkey PBMC
  IC50, PBMC assay on monkey cells: 7 nM

— patent US20050053973A1 (published 2005)
